# Results published in paper doi:10.1101/2025.11.08.687396 (bioRxiv, 2025).
# T1: Ufd1-Npl4 (UN) complex (yeast (S. cerevisiae), UniProt P53044 1-361; P33755 1-580)
# T1 construct: Ufd1 of yeast; Npl4 of yeast; The methods call the complex untagged; the plasmids are described as Ufd1 with an N-terminal His14-SUMO tag and Npl4 with a C-terminal His6 or FLAG-His6 tag; also called untagged Ufd1/Npl4 (UN) complex; source: bacterial expression
# T1 sequence 1: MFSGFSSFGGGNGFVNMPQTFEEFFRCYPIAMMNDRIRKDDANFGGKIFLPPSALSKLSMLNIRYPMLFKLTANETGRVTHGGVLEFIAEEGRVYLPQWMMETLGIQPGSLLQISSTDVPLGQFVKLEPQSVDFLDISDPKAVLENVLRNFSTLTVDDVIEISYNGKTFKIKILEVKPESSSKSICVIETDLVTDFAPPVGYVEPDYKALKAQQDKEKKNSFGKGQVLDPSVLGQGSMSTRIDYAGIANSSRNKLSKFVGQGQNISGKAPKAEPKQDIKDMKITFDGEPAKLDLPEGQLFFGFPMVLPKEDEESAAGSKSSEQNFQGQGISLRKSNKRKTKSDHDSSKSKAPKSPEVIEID
# T1 sequence 2: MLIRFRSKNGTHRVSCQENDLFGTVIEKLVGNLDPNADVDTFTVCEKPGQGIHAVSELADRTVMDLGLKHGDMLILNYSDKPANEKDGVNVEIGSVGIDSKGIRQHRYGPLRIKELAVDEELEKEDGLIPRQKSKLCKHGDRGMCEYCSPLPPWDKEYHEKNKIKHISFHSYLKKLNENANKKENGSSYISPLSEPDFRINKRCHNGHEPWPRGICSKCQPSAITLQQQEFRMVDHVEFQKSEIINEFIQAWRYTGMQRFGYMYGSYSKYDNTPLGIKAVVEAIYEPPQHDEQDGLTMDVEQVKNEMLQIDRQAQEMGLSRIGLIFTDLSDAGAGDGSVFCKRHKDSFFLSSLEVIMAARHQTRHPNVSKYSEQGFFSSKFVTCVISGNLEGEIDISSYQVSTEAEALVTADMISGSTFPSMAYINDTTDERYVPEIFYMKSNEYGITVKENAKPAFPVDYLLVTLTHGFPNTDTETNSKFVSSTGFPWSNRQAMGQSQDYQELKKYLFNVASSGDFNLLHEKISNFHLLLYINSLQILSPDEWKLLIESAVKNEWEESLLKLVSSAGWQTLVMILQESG
# B1: Yod1-C160S (enzyme, human, UniProt Q5VVQ6 1-348, looked up)
# chain: MFGPAKGRHFGVHPAPGFPGGVSQQAAGTKAGPAGAWPVGSRTDTMWRLRCKAKDGTHVLQGLSSRTRVRELQGQIAAITGIAPGGQRILVGYPPECLDLSNGDTILEDLPIQSGDMLIIEEDQTRPRSSPAFTKRGASSYVRETLPVLTRTVVPADNSSLFTSVYYVVEGGVLNPACAPEMRRLIAQIVASDPDFYSEAILGKTNQEYCDWIKRDDTWGGAIEISILSKFYQCEICVVDTQTVRIDRFGEDAGYTKRVLLIYDGIHYDPLQRNFPDPDTPPLTIFSSNDDIVLVQALELADEARRRRQFTDVNRFTLRCMVCQKGLTGQAEAREHAKETGHTNFGEV
# notes: human deubiquitinating enzyme Yod1 with C160S; also called homolog of Otu1; source: E. coli BL21 CodonPlus (DE3) RIPL, purified (Ni-NTA, SEC)
# B2: Otu1-C120S-FLAG (enzyme, S. cerevisiae, UniProt P43558 1-301, looked up)
# chain: MKLKVTGAGINQVVTLKQDATLNDLIEHINVDVKTMRFGYPPQRINLQGEDASLGQTQLDELGINSGEKITIESSDSNESFSLPPPQPKPKRVLKSTEMSIGGSGENVLSVHPVLDDNSSLFHAIAYGIFKQDSVRDLREMVSKEVLNNPVKFNDAILDKPNKDYAQWILKMESWGGAIEIGIISDALAVAIYVVDIDAVKIEKFNEDKFDNYILILFNGIHYDSLTMNEFKTVFNKNQPESDDVLTAALQLASNLKQTGYSFNTHKAQIKCNTCQMTFVGEREVARHAESTGHVDFGQNR
# notes: deubiquitinating enzyme Otu1 of yeast with C120S; pET28: N-terminal His6-tag, TEV-protease cleavage site, then a FLAG tag; source: E. coli BL21 CodonPlus (DE3) RIPL, purified (Ni-NTA, SEC); not shown: FLAG, N-terminal, kept
# B3: UBXN7-SBP (natural protein, human, UniProt O94888 1-489, looked up)
# chain: MAAHGGSAASSALKGLIQQFTTITGASESVGKHMLEACNNNLEMAVTMFLDGGGIAEEPSTSSASVSTVRPHTEEEVRAPIPQKQEILVEPEPLFGAPKRRRPARSIFDGFRDFQTETIRQEQELRNGGAIDKKLTTLADLFRPPIDLMHKGSFETAKECGQMQNKWLMINIQNVQDFACQCLNRDVWSNEAVKNIIREHFIFWQVYHDSEEGQRYIQFYKLGDFPYVSILDPRTGQKLVEWHQLDVSSFLDQVTGFLGEHGQLDGLSSSPPKKCARSESLIDASEDSQLEAAIRASLQETHFDSTQTKQDSRSDEESESELFSGSEEFISVCGSDEEEEVENLAKSRKSPHKDLGHRKEENRRPLTEPPVRTDPGTATNHQGLPAVDSEILEMPPEKADGVVEGIDVNGPKAQLMLRYPDGKREQITLPEQAKLLALVKHVQSKGYPNERFELLTNFPRRKLSHLDYDITLQEAGLCPQETVFVQERN
# notes: human UBXN7, wild type; also called SBP-tagged version of UBXN7; homolog of Ubx5; source: E. coli BL21 CodonPlus (DE3) RIPL, purified (Ni-NTA, SEC); not shown: SBP, C-terminal, kept
# Experiments:
# Details in all cases: both partners purified
# UBXN7-SBP = biological target: B3; assay: pull-down; UBXN7-SBP on streptavidin agarose with p97, human UN, Yod1-C160S and Ub(n)-TAIL, 1 μM each, SEC buffer, 5 mM ATPγS, 1 h, 4°C, eluted with 2 mM biotin; Coomassie-blue staining
# Ufd1-Npl4 (UN) complex = biological target: T1, Ufd1-Npl4 (UN) complex; assay: pull-down; Otu1-C120S-FLAG on anti-FLAG M2 agarose with Cdc48, UN and Ub(n)-TAIL, with or without Ubx5, 1 μM each, SEC buffer, 5 mM ATPγS, 1 h, 4°C; fluorescence scanning and Coomassie-blue staining
# Cdc48 = biological target: T2, Cdc48 (yeast (S. cerevisiae), UniProt P25694 1-835); assay: as above
# T2 construct: Cdc48 ATPase of yeast, wild type; pET28 with N-terminal His6-tag and a TEV-protease cleavage site; also called Cdc48 ATPase; wild-type (WT) Cdc48; source: E. coli BL21 CodonPlus (DE3) RIPL, purified (Ni-NTA, SEC)
# T2 sequence (P25694 whole entry): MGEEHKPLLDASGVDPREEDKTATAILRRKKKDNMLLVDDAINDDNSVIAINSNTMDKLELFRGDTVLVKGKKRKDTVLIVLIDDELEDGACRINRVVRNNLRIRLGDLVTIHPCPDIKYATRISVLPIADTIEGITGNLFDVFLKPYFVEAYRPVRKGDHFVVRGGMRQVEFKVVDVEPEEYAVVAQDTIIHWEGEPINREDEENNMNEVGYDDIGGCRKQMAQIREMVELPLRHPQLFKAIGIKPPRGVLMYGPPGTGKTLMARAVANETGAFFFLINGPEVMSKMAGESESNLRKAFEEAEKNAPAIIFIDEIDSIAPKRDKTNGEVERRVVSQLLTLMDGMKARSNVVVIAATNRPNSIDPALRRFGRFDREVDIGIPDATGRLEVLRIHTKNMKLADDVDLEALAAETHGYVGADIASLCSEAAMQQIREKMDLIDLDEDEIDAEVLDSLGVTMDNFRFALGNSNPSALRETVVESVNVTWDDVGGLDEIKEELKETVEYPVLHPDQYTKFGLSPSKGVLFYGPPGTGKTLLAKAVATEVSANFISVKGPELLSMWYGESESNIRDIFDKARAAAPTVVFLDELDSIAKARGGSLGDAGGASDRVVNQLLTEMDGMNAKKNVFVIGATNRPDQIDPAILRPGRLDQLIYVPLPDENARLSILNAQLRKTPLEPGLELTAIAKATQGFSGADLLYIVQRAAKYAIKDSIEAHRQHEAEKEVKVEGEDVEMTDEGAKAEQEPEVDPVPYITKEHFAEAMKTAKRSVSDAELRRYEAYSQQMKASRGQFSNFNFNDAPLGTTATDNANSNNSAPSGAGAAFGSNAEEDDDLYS
# human Npl4 = biological target: T3, human Npl4 (human, UniProt Q8TAT6 1-608); assay: pull-down; UBXN7-SBP on streptavidin agarose with p97, human UN, Yod1-C160S and Ub(n)-TAIL, 1 μM each, SEC buffer, 5 mM ATPγS, 1 h, 4°C, eluted with 2 mM biotin; Coomassie-blue staining
# T3 construct: human Npl4; Used as the human UN complex with hUfd1; also called hNpl4; Npl4 of the human UN complex; source: purified
# T3 sequence (Q8TAT6 whole entry): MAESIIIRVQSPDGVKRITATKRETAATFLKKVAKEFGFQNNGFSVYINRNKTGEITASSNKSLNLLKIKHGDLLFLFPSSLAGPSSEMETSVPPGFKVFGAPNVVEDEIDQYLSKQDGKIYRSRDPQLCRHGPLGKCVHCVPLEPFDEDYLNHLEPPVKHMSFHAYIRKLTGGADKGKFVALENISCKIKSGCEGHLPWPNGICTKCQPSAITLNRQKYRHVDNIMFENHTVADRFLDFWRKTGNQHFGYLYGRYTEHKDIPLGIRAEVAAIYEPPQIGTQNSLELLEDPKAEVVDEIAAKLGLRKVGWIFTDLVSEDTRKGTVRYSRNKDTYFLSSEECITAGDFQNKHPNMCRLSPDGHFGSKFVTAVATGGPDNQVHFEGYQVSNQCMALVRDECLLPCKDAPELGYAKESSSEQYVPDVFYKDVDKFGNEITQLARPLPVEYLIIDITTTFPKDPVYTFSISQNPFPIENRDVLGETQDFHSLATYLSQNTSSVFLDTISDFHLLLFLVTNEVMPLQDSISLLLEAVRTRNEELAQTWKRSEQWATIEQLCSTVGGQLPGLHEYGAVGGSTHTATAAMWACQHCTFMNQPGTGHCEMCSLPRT
# human p97 ATPase = biological target: T4, human p97 ATPase (human, UniProt P55072 1-806); assay: as above
# T4 construct: human p97 (VCP), wild type; pET28 with N-terminal His6-tag and a TEV-protease cleavage site; also called VCP; homolog of Cdc48; source: E. coli BL21 CodonPlus (DE3) RIPL, purified (Ni-NTA, SEC)
# T4 sequence (P55072 whole entry): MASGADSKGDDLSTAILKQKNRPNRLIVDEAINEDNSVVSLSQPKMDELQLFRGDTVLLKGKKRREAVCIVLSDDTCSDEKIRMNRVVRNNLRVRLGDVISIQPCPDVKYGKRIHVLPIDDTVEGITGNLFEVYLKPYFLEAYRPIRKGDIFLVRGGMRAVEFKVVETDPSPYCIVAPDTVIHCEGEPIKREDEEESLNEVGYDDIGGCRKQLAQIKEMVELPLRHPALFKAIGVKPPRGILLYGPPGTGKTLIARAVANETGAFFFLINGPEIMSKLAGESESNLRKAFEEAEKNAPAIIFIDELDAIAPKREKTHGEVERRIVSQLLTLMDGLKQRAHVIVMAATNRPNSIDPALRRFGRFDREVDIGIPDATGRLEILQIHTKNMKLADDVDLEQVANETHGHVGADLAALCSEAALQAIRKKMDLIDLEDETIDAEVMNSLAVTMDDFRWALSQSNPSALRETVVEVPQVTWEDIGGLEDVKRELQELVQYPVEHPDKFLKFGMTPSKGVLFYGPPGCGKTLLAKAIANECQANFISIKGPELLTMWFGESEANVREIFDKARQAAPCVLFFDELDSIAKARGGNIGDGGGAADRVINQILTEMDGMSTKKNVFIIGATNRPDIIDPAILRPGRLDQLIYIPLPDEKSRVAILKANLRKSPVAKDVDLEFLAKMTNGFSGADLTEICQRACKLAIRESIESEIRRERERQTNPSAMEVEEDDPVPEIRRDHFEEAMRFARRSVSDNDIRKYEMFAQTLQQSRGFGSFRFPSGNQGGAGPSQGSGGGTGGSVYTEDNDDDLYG
binder,measurement,setting,value
B1,binding result,UBXN7-SBP,binds
B2,binding result,Ufd1-Npl4 (UN) complex,binds
same,binding result,Cdc48,binds
B3,binding result,human Npl4,binds
same,binding result,human p97 ATPase,binds
